Reference: US20200317802A1

Legend:
[1] = molecular target: T1, human ADAMTS4 (R&D Systems cat #4307-AD) (human) (UniProt O75173)
T1 sequence (looked up): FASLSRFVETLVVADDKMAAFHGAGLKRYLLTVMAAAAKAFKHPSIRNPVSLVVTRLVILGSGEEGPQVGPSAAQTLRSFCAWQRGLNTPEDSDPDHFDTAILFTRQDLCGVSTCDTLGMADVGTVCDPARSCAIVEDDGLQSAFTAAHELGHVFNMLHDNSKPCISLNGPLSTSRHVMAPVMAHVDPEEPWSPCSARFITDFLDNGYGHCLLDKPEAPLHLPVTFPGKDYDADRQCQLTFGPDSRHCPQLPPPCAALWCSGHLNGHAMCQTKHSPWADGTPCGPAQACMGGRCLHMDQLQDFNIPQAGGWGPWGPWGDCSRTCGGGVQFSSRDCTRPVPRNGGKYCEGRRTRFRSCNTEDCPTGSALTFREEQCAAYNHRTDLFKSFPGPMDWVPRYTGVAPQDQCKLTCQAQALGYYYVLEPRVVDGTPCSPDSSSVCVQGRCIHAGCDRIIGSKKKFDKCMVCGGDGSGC

[2] = molecular target: recombinant human ADAMTS5 (R&D Systems cat #2198-AD) (human) (UniProt Q9UNA0); experiment: cell-based or functional assay
[3] = molecular target: activated human MMP-1 (human) (UniProt P03956)
[4] = molecular target: bovine recombinant ADAMTS5 (bovine); experiment: SPR off-rate, Biacore T100, ADAMTS5 immobilised, experiment 3

Chain of recombinant human ADAMTS5 (R&D Systems cat #2198-AD) (human) (Q9UNA0 262-622 limits assumed): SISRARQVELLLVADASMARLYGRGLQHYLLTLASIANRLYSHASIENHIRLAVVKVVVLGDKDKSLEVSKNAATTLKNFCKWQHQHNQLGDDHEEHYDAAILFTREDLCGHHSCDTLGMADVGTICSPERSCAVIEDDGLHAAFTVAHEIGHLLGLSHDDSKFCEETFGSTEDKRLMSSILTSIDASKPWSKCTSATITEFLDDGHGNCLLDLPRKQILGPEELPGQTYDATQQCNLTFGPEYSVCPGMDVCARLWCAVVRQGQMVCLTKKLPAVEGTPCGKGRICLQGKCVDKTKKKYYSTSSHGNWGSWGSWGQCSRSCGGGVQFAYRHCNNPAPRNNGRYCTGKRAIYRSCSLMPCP
Chain of activated human MMP-1 (human) (P03956 100-469 limits assumed): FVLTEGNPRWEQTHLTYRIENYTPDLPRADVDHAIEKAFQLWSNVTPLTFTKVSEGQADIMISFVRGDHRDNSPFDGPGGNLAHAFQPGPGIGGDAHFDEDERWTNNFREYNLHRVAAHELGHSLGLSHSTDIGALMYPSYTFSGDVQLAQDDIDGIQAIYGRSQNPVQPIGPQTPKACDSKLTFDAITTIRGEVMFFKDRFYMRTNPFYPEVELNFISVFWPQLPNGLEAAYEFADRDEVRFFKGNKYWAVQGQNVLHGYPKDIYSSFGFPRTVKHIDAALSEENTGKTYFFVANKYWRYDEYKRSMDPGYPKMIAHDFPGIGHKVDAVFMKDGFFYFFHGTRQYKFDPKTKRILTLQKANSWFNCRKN

B1: rhTIMP3 (protein, human, UniProt P35625 24-211, looked up)
chain: CTCSPSHPQDAFCNSDIVIRAKVVGKKLVKEGPFGTLVYTIKQMKMYRGFTKMPHVQYIHTEASESLCGLKLEVNKYQYLLTGRVYDGKMYTGLCNFVERWDQLTLSQRKGLNYRYHLGCNCKIKSCYYLPCFVTSKNECLWTDMLSNFGYPGYQSKHYACIRQKGGYCSWYRGWAPPDKSIINATDP
With B1 the IC50 (read off the curve) (human ADAMTS-4 AlphaLISA) [right panel] [1] was 2 nM, the Human AlphaLISA % inhibition [2] was 100% and the Human AlphaLISA IC50 [2] was 0.61 nM. It also gave an IC50 (read off the curve) (human MMP-1 activity, FRET peptide substrate) [3] of 5 nM.

B2: Nanobody 2F03 (VHH)
VHH: EVQLVESGGGLVQAGGSLRLSCAASGRTVSSYAMGWFRLAPGKEREFVAGISRSAERTYYVDSLKGRFTISRDSAKNTVYLHMNRLKPEDTAVYYCAADLDPNRIFSREEYAYWGQGTLVTVSS
With B2 the koff [4] was 4.3e-05 s⁻¹.

B3: Nanobody 11B06 (VHH)
VHH: EVQLVESGGGLVQAGGSLRLSCAASGLTFRRNAMGWFRQAPGKERELLAGINWSGGTTYYVDSVKGRFTISRDNAKNTVDLQMISPKPEDTAVYYCAADGDIGTLVNDENPRYWGQGTLVTVSS
B3 gave a koff [4] of 0.00024 s⁻¹.

B4: Nanobody 9D03 (VHH)
VHH: EVQLVESGGGLVQSGGSLRLSCAASGSAVSVNAMAWYRQAPGKQRDFVAGISRSAGRTYYTDSVKDRFTIARDSAKNTVYLQMNRLKPEDTAVYYCAADLDPNRIFSRDEAAYWGQGTLVTVSS
For B4, the koff [4] was 0.00099 s⁻¹.

B5: Nanobody 2A12 (VHH)
VHH: EVQLVESGGGLVQAGGSLRLSCAASGRTFSSYAMGWFRQAPGKERDFVAGISRSAGRTYYVDSVKGRFTISRDSAKNTVYLQMNRLKPEDTAVYYCAADLDPNRIFSRDEAAYWGQGTLVTVSS
B5 showed a koff [4] of 0.00017 s⁻¹.

B6: Nanobody 2D07 (VHH)
VHH: EVQLVESGGGLVQAGGSLRLSCSFSGPGRTFARYAMGWFRQAPGKNRDFITGISGSGDSTYYVYPMKDRFTISRDNAKNMVYLQMNALKPEDTAVYYCAADREINRIANDKELDFWGQGTLVTVSS
B6 gave a koff [4] of 0.00062 s⁻¹.

B7: Nanobody 3B02 (VHH)
VHH: EVQLVESGGGFVQAGGSLRLSCVASRRTISSGTMGWFRQAPGKEREFVAAIRWSSGMPYYLDSVMDRFTISRDNAKNTVSLQMNSLQPEDTAVYYCAADRSAFRDPSFDVNYEYWGRGTLVTVSS
Binder B7 has a koff [4] of 0.0011 s⁻¹.

B8: Nanobody 3D01 (VHH)
VHH: EVQLVESGGGLVQAGGSLRLSCAPSGFTFSPYYMGWFRQAPGKERDFVAAISRSRGTTYYLDSTEGRFTISRDNANDTVYLQMNSLNPEDTAVYYCAAGRSPGDPSRTYLYDYWGQGTLVTVSS
B8 gave a koff [4] of 0.00035 s⁻¹.
